# US6136579
# Molecular target: asialofetuin (Sigma Type-I) (Bos taurus (Bovine)) (UniProt P12763)
substance,measurement,value
Triton extract of uninfected RK13 cells (pool or library),"[…] (fluorescence assay, […] (mU/mg total protein)",0.036
